The values below come from paper PMC11461925 (2024).

The assay deals with Wu-1-RBD-I53-50A (SARS-CoV-2, UniProt P0DTC2 328-531). Put plainly: BLI. In general terms: In BLI a coated tip is dipped into the sample, and binding shifts an interference pattern.

B1: LY-CoV555 Fab (Fab, V domains shown)
VH: QVQLVQSGAEVKKPGSSVKVSCKASGGTFSNYAISWVRQAPGQGLEWMGRIIPILGIANYAQKFQGRVTITADKSTSTAYMELSSLRSEDTAVYYCARGYYEARHYYYYYAMDVWGQGTAVTVSS
VL: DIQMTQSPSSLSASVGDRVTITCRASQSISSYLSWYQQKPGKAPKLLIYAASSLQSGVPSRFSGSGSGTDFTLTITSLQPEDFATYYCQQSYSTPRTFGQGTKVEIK
Turning to B1, binding was characterised by a dissociation constant (Kd) of 26.9 nM.

As a reminder, the Kd is the constant that tells how readily two partners part at equilibrium.
